Several values for one entry are separate records, joined by “and”; a condition that tells them apart may be missing. Identical values can stand only once. Like-named read-outs stand apart in the source and are kept apart here. No end group written: not given here.
Experiments:
[1] = molecular target: Doc1-122–His6 (DocSTm toxin) (Salmonella typhimurium); test: SPR; Biacore S200; Doc-His6 captured on a Series S NTA chip (200-400 RU); peptide as analyte, single-cycle kinetics, six concentrations (3-fold dilutions), 30 uL/min; 22 C; 10 mM HEPES, 500 mM NaCl, 50 uM EDTA, 0.005% TWEEN 20, pH 8.0; kinetic 1:1 fit
[2] = molecular target: Doc1-122–His6 (DocSTm toxin) (Salmonella typhimurium); test: as above; remark: listed apart in the source
[3] = molecular target: Doc1-122–His6 (DocSTm toxin) (Salmonella typhimurium); test: as above; remark: listed apart in the source
[4] = molecular target: Doc1-122–His6 (DocSTm toxin) (Salmonella typhimurium); test: as above; remark: listed apart in the source
[5] = molecular target: Doc1-122–His6 (DocSTm toxin) (Salmonella typhimurium); test: as above; remark: listed apart in the source
[6] = molecular target: Doc1-122–His6 (DocSTm toxin) (Salmonella typhimurium); test: SPR; Biacore S200; Doc-His6 captured on NTA chip; peptide as analyte, multi-cycle experiments up to 500 nM; 22 C; 10 mM HEPES, 500 mM NaCl, 50 uM EDTA, 0.005% TWEEN 20, pH 8.0; steady-state 1:1 fit
[7] = molecular target: Doc1-122–His6 (DocSTm toxin) (Salmonella typhimurium); test: as above; remark: listed apart in the source
[8] = molecular target: Doc1-122–His6 (DocSTm toxin) (Salmonella typhimurium); test: SPR; Biacore S200; Doc-His6 captured on a Series S NTA chip (200-400 RU); peptide as analyte, single-cycle kinetics, six concentrations (3-fold dilutions), 30 uL/min; 22 C; 10 mM HEPES, 500 mM NaCl, 50 uM EDTA, 0.005% TWEEN 20, pH 8.0; kinetic 1:1 fit; remark: listed apart in the source
[9] = molecular target: Doc1-122–His6 (DocSTm toxin) (Salmonella typhimurium); test: as above; remark: listed apart in the source
[10] = molecular target: Doc1-122–His6 (DocSTm toxin) (Salmonella typhimurium); test: as above; remark: listed apart in the source
[11] = molecular target: Doc1-122–His6 (DocSTm toxin) (Salmonella typhimurium); test: as above; remark: listed apart in the source
[12] = molecular target: Doc1-122–His6 (DocSTm toxin) (Salmonella typhimurium); test: as above; remark: listed apart in the source
[13] = molecular target: Doc1-122–His6 (DocSTm toxin) (Salmonella typhimurium); test: as above; remark: listed apart in the source
[14] = molecular target: Doc1-122–His6 (DocSTm toxin) (Salmonella typhimurium); test: as above; remark: listed apart in the source
[15] = molecular target: Doc1-122–His6 (DocSTm toxin) (Salmonella typhimurium); test: as above; remark: listed apart in the source
[16] = molecular target: Doc1-122–His6 (DocSTm toxin) (Salmonella typhimurium); test: as above; remark: listed apart in the source
[17] = molecular target: Doc toxin of Salmonella enterica serovar Typhimurium (DocSTm) (Salmonella enterica serovar Typhimurium); test: SPR; DocSTm immobilised on a Series S NTA chip (150 nM, 200-400 RU); analytes in single-cycle kinetics, typically six concentrations, kinetic 1:1 fit; 22 °C; 10 mM HEPES, 500 mM NaCl, 50 μM EDTA, 0.005% TWEEN 20, pH 8.0
[18] = molecular target: Doc toxin of Salmonella enterica serovar Typhimurium (DocSTm) (Salmonella enterica serovar Typhimurium, UniProt A0A1C9CWN5 1-126); test: as above; conditions: both partners purified
Doc = molecular target: T1, Doc (Salmonella Typhimurium); test: SPR
T1 chain: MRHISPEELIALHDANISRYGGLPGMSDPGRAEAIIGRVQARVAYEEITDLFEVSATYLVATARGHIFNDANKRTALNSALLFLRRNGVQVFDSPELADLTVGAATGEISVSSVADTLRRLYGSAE

[19] = molecular target: Doc toxin of Salmonella enterica serovar Typhimurium (DocSTm) (Salmonella enterica serovar Typhimurium); test: SPR; DocSTm immobilised on a Series S NTA chip; analytes in multicycle kinetics, kinetic and/or steady-state 1:1 fit (steady-state for peptide 14); 22 °C; 10 mM HEPES, 500 mM NaCl, 50 μM EDTA, 0.005% TWEEN 20, pH 8.0

peptide 2 (PhdSTm52-73-M52A)
Kd [1]: 0.052 nM | koff [1]: 5.9e-05 s⁻¹ | kon [1]: 1.14e+06 M⁻¹ s⁻¹ | Kd [2]: 0.0523 nM and 0.0478 nM and 0.0551 nM | koff [2]: 5.44e-05 s⁻¹ and 5.13e-05 s⁻¹ and 7.14e-05 s⁻¹ | kon [2]: 1.04e+06 M⁻¹ s⁻¹ and 1.07e+06 M⁻¹ s⁻¹ and 1.3e+06 M⁻¹ s⁻¹

peptide 3 (PhdSTm52-73-D53A)
koff [1]: 6.5e-05 s⁻¹ | kon [1]: 5.07e+06 M⁻¹ s⁻¹ | Kd [3]: 0.0121 nM and 0.0166 nM and 0.00992 nM | koff [3]: 6.65e-05 s⁻¹ and 8.25e-05 s⁻¹ and 4.72e-05 s⁻¹ | kon [3]: 5.48e+06 M⁻¹ s⁻¹ and 4.98e+06 M⁻¹ s⁻¹ and 4.76e+06 M⁻¹ s⁻¹

peptide 5 (PhdSTm52-73-E55A)
Kd [4]: 0.0489 nM and 0.0513 nM and 0.0469 nM | koff [4]: 7.11e-05 s⁻¹ and 7.49e-05 s⁻¹ and 8.02e-05 s⁻¹ | kon [4]: 1.5e+06 1/(M s) (2×) and 1.7e+06 1/(M s) | Kd [1]: 0.049 nM | koff [1]: 7.5e-05 s⁻¹ | kon [1]: 1.54e+06 M⁻¹ s⁻¹

peptide 6 (PhdSTm52-73-F56A)
koff [1]: 0.000843 s⁻¹ | kon [1]: 989000 M⁻¹ s⁻¹ | Kd [5]: 1 nM and 0.919 nM and 0.745 nM | koff [5]: 0.000717 s⁻¹ and 0.000702 s⁻¹ and 0.00111 s⁻¹ | kon [5]: 714000 M⁻¹ s⁻¹ and 764000 M⁻¹ s⁻¹ and 1.49e+06 M⁻¹ s⁻¹

peptide 7 (PhdSTm52-73-I59A)
Kd [6]: 19.9 nM | Kd [7]: 25.4 nM and 19.4 nM and 15.1 nM

peptide 8 (PhdSTm52-73-M60A)
Kd [1]: 0.553 nM | koff [1]: 0.00122 s⁻¹ | kon [1]: 2.22e+06 M⁻¹ s⁻¹ | Kd [8]: 0.67 nM and 0.611 nM and 0.485 nM | koff [8]: 0.000966 s⁻¹ and 0.00091 s⁻¹ and 0.00181 s⁻¹ | kon [8]: 1.44e+06 M⁻¹ s⁻¹ and 1.49e+06 M⁻¹ s⁻¹ and 3.73e+06 M⁻¹ s⁻¹

peptide 9 (PhdSTm52-73-V62A)
Kd [1]: 0.171 nM | koff [1]: 0.000388 s⁻¹ | kon [1]: 2.27e+06 M⁻¹ s⁻¹ | Kd [9]: 0.183 nM and 0.239 nM and 0.132 nM | koff [9]: 0.000329 s⁻¹ and 0.000394 s⁻¹ and 0.000442 s⁻¹ | kon [9]: 1.8e+06 M⁻¹ s⁻¹ and 1.65e+06 M⁻¹ s⁻¹ and 3.35e+06 M⁻¹ s⁻¹

peptide 10 (PhdSTm52-73-H63A)
Kd [6]: 21.8 nM | Kd [7]: 12.2 nM and 13.1 nM and 40 nM

peptide 11 (PhdSTm52-73-G64A)
Kd [1]: 0.084 nM | koff [1]: 0.000197 s⁻¹ | kon [1]: 2.35e+06 M⁻¹ s⁻¹ | Kd [10]: 0.13 nM and 0.0743 nM and 0.0769 nM | koff [10]: 1.42e-05 s⁻¹ and 2.28e-05 s⁻¹ and 2.23e-05 s⁻¹ | kon [10]: 1.08e+06 M⁻¹ s⁻¹ and 3.07e+06 M⁻¹ s⁻¹ and 2.9e+06 M⁻¹ s⁻¹

peptide 13 (PhdSTm52-73-E66A)
Kd [1]: 0.042 nM | koff [1]: 0.000112 s⁻¹ | kon [1]: 2.7e+06 M⁻¹ s⁻¹ | Kd [11]: 0.0475 nM and 0.0451 nM and 0.0352 nM | koff [11]: 7.15e-05 s⁻¹ and 0.000147 s⁻¹ and 0.000118 s⁻¹ | kon [11]: 1.5e+06 M⁻¹ s⁻¹ and 3.26e+06 M⁻¹ s⁻¹ and 3.35e+06 M⁻¹ s⁻¹

peptide 14 (PhdSTm52-73-L67A)
Kd [6]: 21.4 nM | Kd [7]: 25 nM and 23.9 nM and 15.4 nM

peptide 15 (PhdSTm52-73-R68A)
Kd [1]: 0.115 nM | koff [1]: 0.000185 s⁻¹ | kon [1]: 1.6e+06 M⁻¹ s⁻¹ | Kd [12]: 0.124 nM and 0.106 nM and 0.112 nM | koff [12]: 0.000244 s⁻¹ and 0.000166 s⁻¹ and 0.000144 s⁻¹ | kon [12]: 1.95e+06 M⁻¹ s⁻¹ and 1.57e+06 M⁻¹ s⁻¹ and 1.29e+06 M⁻¹ s⁻¹

peptide 16 (PhdSTm52-73-E69A)
Kd [1]: 0.065 nM | koff [1]: 0.000136 s⁻¹ | kon [1]: 2.1e+06 M⁻¹ s⁻¹ | Kd [13]: 0.0687 nM and 0.0703 nM and 0.0518 nM | koff [13]: 0.000151 s⁻¹ and 0.000169 s⁻¹ and 8.97e-05 s⁻¹ | kon [13]: 2.2e+06 M⁻¹ s⁻¹ and 2.37e+06 M⁻¹ s⁻¹ and 1.73e+06 M⁻¹ s⁻¹

peptide 17 (PhdSTm52-73-L70A)
Kd [14]: 2.1 nM and 1.98 nM and 1.02 nM | koff [14]: 0.00602 s⁻¹ and 0.00634 s⁻¹ and 0.00554 s⁻¹ | kon [14]: 2.87e+06 M⁻¹ s⁻¹ and 3.2e+06 M⁻¹ s⁻¹ and 5.44e+06 M⁻¹ s⁻¹ | koff [1]: 0.00597 s⁻¹ | kon [1]: 3.84e+06 M⁻¹ s⁻¹

peptide 18 (PhdSTm52-73-D72A)
Kd [1]: 0.033 nM | koff [1]: 8.4e-05 s⁻¹ | kon [1]: 2.51e+06 M⁻¹ s⁻¹ | Kd [15]: 0.0532 nM and 0.0189 nM and 0.0385 nM | koff [15]: 7.43e-05 s⁻¹ and 5.67e-05 s⁻¹ and 0.00012 s⁻¹ | kon [15]: 1.4e+06 M⁻¹ s⁻¹ and 3.01e+06 M⁻¹ s⁻¹ and 3.12e+06 M⁻¹ s⁻¹

peptide 20 (PhdSTm52-71)
Kd [1]: 0.428 nM | koff [1]: 0.000393 s⁻¹ | kon [1]: 917000 M⁻¹ s⁻¹ | Kd [16]: 0.447 nM and 0.414 nM and 0.424 nM | koff [16]: 0.000413 s⁻¹ and 0.000387 s⁻¹ and 0.000378 s⁻¹ | kon [16]: 925000 M⁻¹ s⁻¹ and 934000 M⁻¹ s⁻¹ and 891000 M⁻¹ s⁻¹

peptide 22 (Phd 55-71)
Kd [17]: 0.347 nM

peptide 23 (Phd 56-70)
Kd [17]: 1.98 nM

Ac-WMDDEFAAIMAVHGNELRELA-OH [peptide 20 (C-terminally truncated analogue of peptide 1)]
fold loss in Kd against peptide 1 [18]: ~5 fold

AALDAEFASLFDTLDSTNKELVNR [Phd peptide 1 neutralization domain]
Kd (Doc): 0.073 nM

Ac-WMDDEFAAAMAVHGNELRELADK [peptide 7 (Phd 52-73 I59A)]
Kd [19]: 20 nM

FASLFDTLDSTNKEL [Phd peptide 23 56-70]
Kd (Doc): 1.98 nM

Ac-EFAAIMAVHGNELRELADK-OH [peptide 21 (N-terminally truncated analogue of peptide 1)]
fold loss in Kd against peptide 1 [18]: ~5 fold

Ac-WMDDEFAAIMAVHGNEARELADK [peptide 14 (Phd 52-73 L67A)]
Kd [19]: 20 nM

EFASLFDTLDSTNKELV [Phd peptide 22 55-71]
Kd (Doc): 0.347 nM

Ac-WMDDEFAAIMAVAGNELRELADK [peptide 10 (Phd 52-73 H63A)]
Kd [19]: 20 nM

From paper PMC9207808 (ACS Chemical Biology, 2022)
